{"source": "patent US20250361288A1", "about": "(Gilead, published 2025)", "binders": {"B1": {"name": "LIGHT-53 (ligand)", "chain": "DGPAGSWEQLIQERRSHEVNPAAHLTGANSSLTGSGGPLLWETNLGLAFLRGLSYHDGALVVTKAGYYYIYSKVQLGGVGCPLGLASTITHGLYKRTPRYPEELELLVSQQSPCGRATSSSRVWWDSSFLGGVVHLEAGEKVVVRVSDERLVRTRDGTRSYFGAFMV", "notes": "Printed mutations: Q117N, L220S, L227T; Soluble protein carries an N-terminal His tag"}, "B2": {"name": "LIGHT-82 (ligand)", "chain": "B1 chain with N44E, S87G, T88G, E149S", "notes": "Printed mutations: Q117E, S160G, T161G, L220S, E222S, L227T; Soluble protein carries an N-terminal His tag"}, "B3": {"name": "LIGHT-71 (ligand)", "chain": "B1 chain with T88P", "notes": "Printed mutations: Q117N, T161P, L220S, L227T; Soluble protein carries an N-terminal His tag"}, "B4": {"name": "LIGHT-79 (ligand)", "chain": "B1 chain with N44E, S87G, T88S", "notes": "Printed mutations: Q117E, S160G, T161S, L220S, L227T; Soluble protein carries an N-terminal His tag"}, "B5": {"name": "LIGHT-56 (ligand)", "chain": "B1 chain with N44E, S147T", "notes": "Printed mutations: Q117E, L220T, L227T; Soluble protein carries an N-terminal His tag"}, "B6": {"name": "LIGHT-81 (ligand)", "chain": "B1 chain with S87G, T88P, E149S", "notes": "Printed mutations: Q117N, S160G, T161P, L220S, E222S, L227T; Soluble protein carries an N-terminal His tag"}, "B7": {"name": "LIGHT-73 (ligand)", "chain": "B1 chain with N44E, T88G", "notes": "Printed mutations: Q117E, T161G, L220S, L227T; Soluble protein carries an N-terminal His tag"}, "B8": {"name": "LIGHT-57 (ligand)", "chain": "B1 chain with N44Q", "notes": "Printed mutations: L220S, L227T; Soluble protein carries an N-terminal His tag"}, "B9": {"name": "LIGHT-78 (ligand)", "chain": "B1 chain with S87G, T88S", "notes": "Printed mutations: Q117N, S160G, T161S, L220S, L227T; Soluble protein carries an N-terminal His tag"}, "B10": {"name": "LIGHT-64 (ligand)", "chain": "B1 chain with N44Q, T88P", "notes": "Printed mutations: T161P, L220S, L227T; Soluble protein carries an N-terminal His tag"}, "B11": {"name": "LIGHT-85 (ligand)", "chain": "B1 chain with N44E, S87G, T88S, E149S", "notes": "Printed mutations: Q117E, S160G, T161S, L220S, E222S, L227T; Soluble protein carries an N-terminal His tag"}, "B12": {"name": "LIGHT-55 (ligand)", "chain": "B1 chain with S147T", "notes": "Printed mutations: Q117N, L220T, L227T; Soluble protein carries an N-terminal His tag"}, "B13": {"name": "LIGHT-74 (ligand)", "chain": "B1 chain with S87G, T88G", "notes": "Printed mutations: Q117N, S160G, T161G, L220S, L227T; Soluble protein carries an N-terminal His tag"}, "B14": {"name": "LIGHT-62 (ligand)", "chain": "B1 chain with N44Q, S87G, T88G, S147T, T154L", "notes": "Printed mutations: S160G, T161G, L220T; Soluble protein carries an N-terminal His tag"}, "B15": {"name": "LIGHT-75 (ligand)", "chain": "B1 chain with S87G, T88P", "notes": "Printed mutations: Q117N, S160G, T161P, L220S, L227T; Soluble protein carries an N-terminal His tag"}, "B16": {"name": "LIGHT-77 (ligand)", "chain": "B1 chain with N44E, S87G, T88P", "notes": "Printed mutations: Q117E, S160G, T161P, L220S, L227T; Soluble protein carries an N-terminal His tag"}, "B17": {"name": "LIGHT-68 (ligand)", "chain": "B1 chain with N44Q, S87G, T88G", "notes": "Printed mutations: S160G, T161G, L220S, L227T; Soluble protein carries an N-terminal His tag"}, "B18": {"name": "LIGHT-80 (ligand)", "chain": "B1 chain with S87G, T88G, E149S", "notes": "Printed mutations: Q117N, S160G, T161G, L220S, E222S, L227T; Soluble protein carries an N-terminal His tag"}, "B19": {"name": "LIGHT-54 (ligand)", "chain": "B1 chain with N44E", "notes": "Printed mutations: Q117E, L220S, L227T; Soluble protein carries an N-terminal His tag"}, "B20": {"name": "LIGHT-59 (ligand)", "chain": "B1 chain with N44Q, S87G, T88P, T154L", "notes": "Printed mutations: S160G, T161P, L220S; Soluble protein carries an N-terminal His tag"}, "B21": {"name": "LIGHT-83 (ligand)", "chain": "B1 chain with N44E, S87G, T88P, E149S", "notes": "Printed mutations: Q117E, S160G, T161P, L220S, E222S, L227T; Soluble protein carries an N-terminal His tag"}, "B22": {"name": "LIGHT-70 (ligand)", "chain": "B1 chain with T88G", "notes": "Printed mutations: Q117N, T161G, L220S, L227T; Soluble protein carries an N-terminal His tag"}, "B23": {"name": "LIGHT-63 (ligand)", "chain": "B1 chain with N44Q, T88G", "notes": "Printed mutations: T161G, L220S, L227T; Soluble protein carries an N-terminal His tag"}, "B24": {"name": "LIGHT-72 (ligand)", "chain": "B1 chain with S87G", "notes": "Printed mutations: Q117N, S160G, L220S, L227T; Soluble protein carries an N-terminal His tag"}, "B25": {"name": "LIGHT-65 (ligand)", "chain": "B1 chain with N44Q, S87G", "notes": "Printed mutations: S160G, L220S, L227T; Soluble protein carries an N-terminal His tag"}, "B26": {"name": "LIGHT-67 (ligand)", "chain": "B1 chain with N44Q, T88S", "notes": "Printed mutations: T161S, L220S, L227T; Soluble protein carries an N-terminal His tag"}, "B27": {"name": "LIGHT-69 (ligand)", "chain": "B1 chain with N44Q, S87G, T88P", "notes": "Printed mutations: S160G, T161P, L220S, L227T; Soluble protein carries an N-terminal His tag"}, "B28": {"name": "LIGHT-66 (ligand)", "chain": "B1 chain with N44Q, S87G, S147T", "notes": "Printed mutations: S160G, L220T, L227T; Soluble protein carries an N-terminal His tag"}}, "note": "Residue numbers refer to the chain shown, from its start. Names may count otherwise.", "data": [{"target": "T1, human LTβR extracellular domain fused with an Fc fragment at the C-terminus (human, UniProt P36941 31-227)", "T1 construct": "extracellular domain; Bought; also called hLTβR; not shown: Fc fragment at the C-terminus", "T1 sequence (P36941 31-227)": "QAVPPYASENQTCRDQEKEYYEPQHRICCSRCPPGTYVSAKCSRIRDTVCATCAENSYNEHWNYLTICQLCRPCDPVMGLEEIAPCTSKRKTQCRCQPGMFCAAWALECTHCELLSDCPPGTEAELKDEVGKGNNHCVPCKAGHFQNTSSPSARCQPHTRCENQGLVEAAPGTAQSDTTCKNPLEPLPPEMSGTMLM", "assay": "phage ELISA", "protocol": "(§1) Individual clones from the fourth selection round were grown in 96-well deep well blocks in 100 μl of 2YT broth supplemented with 50 μg/ml ampicillin at 37° C. and 220 rpm for 5 hours. Then, 5 μl of helper phages were added to each well and incubated at 37° C. for 30 minutes. After centrifuging at 3,000 rpm for 10 minutes, the cells were resuspended and grown overnight in 150 μl/well of 2YT broth supplemented with 50 μg/ml ampicillin and 50 μg/ml kanamycin.\n(§2) For the ELISA screening, 96-well ELISA plates were coated with target proteins (1 μg/ml in PBS) at 4° C. overnight and then blocked with 2% BSA for 2 hours at room temperature. The supernatant containing phage particles was added to the plates and incubated at room temperature for 1 hour. After incubation, the plates were washed five times with PBST. HRP (horseradish peroxidase) conjugated anti-M13 antibody (Sino Biological, China) was added to the wells and incubated at room temperature for 1 hour. Following another round of washing five times with PBST, 50 μl of TMB (3,3′, 5,5″-tetramethylbenzidine, #34029, ThemoFisher) was added to each well. After 5 minutes, the reaction was stopped by adding 50 μl stop solution (#C1058, Solarbio, China). The absorbance at 450 nm (OD450) was measured using a plate reader (SpectraMax M5, Molecule Devices). Wells coated with BSA were used as negative controls. Phage clones with an ELISA score ratio (target/BSA)>3 were considered positive clones.", "values": [{"binder": "B1", "binding result": "binds"}, {"binder": "B2", "binding result": "binds"}, {"binder": "B3", "binding result": "binds"}, {"binder": "B4", "binding result": "binds"}, {"binder": "B5", "binding result": "binds"}, {"binder": "B6", "binding result": "binds"}, {"binder": "B7", "binding result": "binds"}, {"binder": "B8", "binding result": "binds"}, {"binder": "B9", "binding result": "binds"}, {"binder": "B10", "binding result": "binds"}, {"binder": "B11", "binding result": "binds"}, {"binder": "B12", "binding result": "binds"}, {"binder": "B13", "binding result": "binds"}, {"binder": "B14", "binding result": "binds"}, {"binder": "B15", "binding result": "binds"}, {"binder": "B16", "binding result": "binds"}, {"binder": "B17", "binding result": "binds"}, {"binder": "B18", "binding result": "binds"}, {"binder": "B19", "binding result": "binds"}, {"binder": "B20", "binding result": "binds"}, {"binder": "B21", "binding result": "binds"}, {"binder": "B22", "binding result": "binds"}, {"binder": "B23", "binding result": "binds"}, {"binder": "B24", "binding result": "binds"}, {"binder": "B25", "binding result": "binds"}, {"binder": "B26", "binding result": "binds"}, {"binder": "B27", "binding result": "binds"}, {"binder": "B28", "binding result": "binds"}]}, {"target": "T2, mouse LTβR extracellular domain fused with an Fc fragment at the C-terminus (mouse, UniProt P50284 31-223)", "T2 construct": "extracellular domain; Bought; also called mLTβR; not shown: Fc fragment at the C-terminus", "T2 sequence (P50284 31-223)": "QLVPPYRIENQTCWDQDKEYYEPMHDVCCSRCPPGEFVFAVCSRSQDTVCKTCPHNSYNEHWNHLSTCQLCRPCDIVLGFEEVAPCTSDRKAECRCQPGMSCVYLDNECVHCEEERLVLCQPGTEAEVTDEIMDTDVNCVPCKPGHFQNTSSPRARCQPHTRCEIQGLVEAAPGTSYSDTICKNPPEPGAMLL", "assay": "phage ELISA", "protocol": "as §1, §2", "values": [{"binder": "B1", "binding result": "binds"}, {"binder": "B2", "binding result": "binds"}, {"binder": "B3", "binding result": "binds"}, {"binder": "B4", "binding result": "binds"}, {"binder": "B5", "binding result": "binds"}, {"binder": "B6", "binding result": "binds"}, {"binder": "B7", "binding result": "binds"}, {"binder": "B8", "binding result": "binds"}, {"binder": "B9", "binding result": "binds"}, {"binder": "B10", "binding result": "binds"}, {"binder": "B11", "binding result": "binds"}, {"binder": "B12", "binding result": "binds"}, {"binder": "B13", "binding result": "binds"}, {"binder": "B14", "binding result": "binds"}, {"binder": "B15", "binding result": "binds"}, {"binder": "B16", "binding result": "binds"}, {"binder": "B17", "binding result": "binds"}, {"binder": "B18", "binding result": "binds"}, {"binder": "B19", "binding result": "binds"}, {"binder": "B20", "binding result": "binds"}, {"binder": "B21", "binding result": "binds"}, {"binder": "B22", "binding result": "binds"}, {"binder": "B23", "binding result": "binds"}, {"binder": "B24", "binding result": "binds"}, {"binder": "B25", "binding result": "binds"}, {"binder": "B26", "binding result": "binds"}, {"binder": "B27", "binding result": "binds"}, {"binder": "B28", "binding result": "binds"}]}, {"target": "T3, human HVEM extracellular domain fused with an Fc fragment at the C-terminus (human, UniProt Q92956 39-202)", "T3 construct": "extracellular domain; Bought; also called hHVEM; not shown: Fc fragment at the C-terminus", "T3 sequence (looked up)": "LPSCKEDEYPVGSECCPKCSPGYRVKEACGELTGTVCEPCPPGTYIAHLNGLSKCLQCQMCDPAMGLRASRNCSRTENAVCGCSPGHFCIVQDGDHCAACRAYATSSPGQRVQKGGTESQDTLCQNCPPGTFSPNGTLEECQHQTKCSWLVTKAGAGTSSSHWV", "assay": "phage ELISA", "protocol": "as §1, §2", "values": [{"binder": "B1", "binding result": "binds"}, {"binder": "B2", "binding result": "binds"}, {"binder": "B3", "binding result": "binds"}, {"binder": "B4", "binding result": "binds"}, {"binder": "B5", "binding result": "binds"}, {"binder": "B6", "binding result": "binds"}, {"binder": "B7", "binding result": "binds"}, {"binder": "B8", "binding result": "binds"}, {"binder": "B9", "binding result": "binds"}, {"binder": "B10", "binding result": "binds"}, {"binder": "B11", "binding result": "binds"}, {"binder": "B12", "binding result": "binds"}, {"binder": "B13", "binding result": "binds"}, {"binder": "B14", "binding result": "binds"}, {"binder": "B15", "binding result": "binds"}, {"binder": "B16", "binding result": "binds"}, {"binder": "B17", "binding result": "binds"}, {"binder": "B18", "binding result": "binds"}, {"binder": "B19", "binding result": "binds"}, {"binder": "B20", "binding result": "binds"}, {"binder": "B21", "binding result": "binds"}, {"binder": "B22", "binding result": "binds"}, {"binder": "B23", "binding result": "binds"}, {"binder": "B24", "binding result": "binds"}, {"binder": "B25", "binding result": "binds"}, {"binder": "B26", "binding result": "binds"}, {"binder": "B27", "binding result": "binds"}, {"binder": "B28", "binding result": "binds"}]}]}
